The target of this assay is Tolypothrix sp. PCC 7601 Orange Carotenoid Protein 1 (OCP1) (Tolypothrix sp. PCC 7601). The experiment in a line: crystal structure.

On to “Tolypothrix sp. PCC 7601 Orange Carotenoid Protein 1 (OCP1) (natural protein)”, for which the stoichiometry N (in general, the number of molecules, sites or subunits per partner or assembly) is 2.
